Read-outs that look alike come from different tables or passages of the source.
Key:
mouse GPCR142 = biological target: T1, mouse GPCR142 (Mus musculus, UniProt Q7TQP4); assay: Ca2+ mobilization assay, mouse GPCR142 and Gα16; type: cell-based; settings: cells expressing mouse GPCR142 and Gα16
T1 construct: The complete coding region of the mouse GPCR142 was deposited in GenBank; expressed in transfected cells; CHO membranes (GTPγS, by the general protocol); HEK293 with Gα16 (Ca2+)
T1 sequence (Q7TQP4 1-414): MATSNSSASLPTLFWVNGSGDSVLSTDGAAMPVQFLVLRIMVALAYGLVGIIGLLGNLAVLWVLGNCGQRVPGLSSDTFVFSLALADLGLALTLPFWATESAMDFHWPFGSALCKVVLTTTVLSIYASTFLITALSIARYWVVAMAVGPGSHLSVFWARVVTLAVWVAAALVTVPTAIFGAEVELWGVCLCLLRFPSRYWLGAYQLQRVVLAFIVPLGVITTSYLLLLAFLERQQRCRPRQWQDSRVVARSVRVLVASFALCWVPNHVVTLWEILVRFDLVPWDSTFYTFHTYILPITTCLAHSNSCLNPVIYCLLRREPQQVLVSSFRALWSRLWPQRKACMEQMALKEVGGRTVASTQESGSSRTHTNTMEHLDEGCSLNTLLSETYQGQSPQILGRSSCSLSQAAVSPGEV
Description: (§1) Human embryonic kidney (HEK) 293 cells were transfected with GPCR135,.GPCR142 or co-transfected with Gqi5 (Conklin et al. (1993), Nature 363, 274-280) or Gα16 (Amatruda et al. (1991), Proc. Natl. Acad. Sci. U.S.A. 88, 5587-5591) expressing plasmids using LipofectAmine. Two days after transfection, cells were detached with PBS plus 10 mM EDTA. The detached cells were washed with DMEM-F12 medium (without phenol red, Invitrogen) and seeded in black poly-D lysine coated 96-well plates (BD Biosciences, San Jose, Calif.) at a cell density of 50,000 cell/well.

GPCR142 = GPCR142 (Homo sapiens, UniProt Q8TDU9, L329S); assay: Ca2+ mobilization assay, 293 cells co-expressing GPCR142 and Gqi5; type: cell-based; set-up: The complete coding region of human GPCR142 was PCR-amplified from human genomic DNA; expressed in transfected cells; HEK293 co-transfected with Gqi5 (Ca2+)
Sequence of GPCR142 (Q8TDU9 whole entry L329S): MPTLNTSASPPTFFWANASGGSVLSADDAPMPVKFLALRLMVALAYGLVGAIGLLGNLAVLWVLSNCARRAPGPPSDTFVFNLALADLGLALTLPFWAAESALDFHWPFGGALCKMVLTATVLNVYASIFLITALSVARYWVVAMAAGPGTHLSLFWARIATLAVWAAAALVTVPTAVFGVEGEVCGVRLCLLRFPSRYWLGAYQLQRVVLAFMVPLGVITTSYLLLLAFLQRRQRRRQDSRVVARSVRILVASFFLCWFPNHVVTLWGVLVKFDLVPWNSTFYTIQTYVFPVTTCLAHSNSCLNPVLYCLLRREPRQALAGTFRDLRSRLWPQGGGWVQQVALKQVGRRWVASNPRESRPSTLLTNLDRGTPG
Description: as §1

GPCR135 [1] = biological target: T2, GPCR135 (Homo sapiens, UniProt Q9NSD7); assay: Radioligand competition binding with 125I-relaxin3, COS-7 cell membranes; set-up: expressed in transfected cells; host or cells: COS-7 (membranes); settings: COS-7 membranes, 100 pM radioligand
T2 sequence (Q9NSD7 1-469): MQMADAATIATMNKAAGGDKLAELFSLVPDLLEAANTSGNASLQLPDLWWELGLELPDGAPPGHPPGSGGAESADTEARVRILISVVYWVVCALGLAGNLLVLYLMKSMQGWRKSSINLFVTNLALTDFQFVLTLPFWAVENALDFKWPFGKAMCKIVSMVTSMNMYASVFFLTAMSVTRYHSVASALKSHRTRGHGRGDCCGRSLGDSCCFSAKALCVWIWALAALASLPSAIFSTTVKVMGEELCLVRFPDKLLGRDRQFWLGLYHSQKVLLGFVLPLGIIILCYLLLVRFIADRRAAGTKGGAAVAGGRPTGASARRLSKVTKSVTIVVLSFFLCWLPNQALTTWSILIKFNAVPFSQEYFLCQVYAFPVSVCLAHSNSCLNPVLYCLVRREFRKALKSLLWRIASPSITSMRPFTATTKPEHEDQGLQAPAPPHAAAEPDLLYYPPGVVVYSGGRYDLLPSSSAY
Description: Cell membranes from COS-7 cells transiently expressing GPCR142 were incubated with ^125I-relaxin3 either in the presence or absence of various concentrations of different competitors in 96-well plates at a final volume of 200 μL in binding buffer: 50 mM Tris-HCl (pH 7.4), 2 mM EDTA plus 0.5% BSA. The binding mixtures were incubated at room temperature for 1 h and then were filtered through 96-well GFC plates (Packard) and washed with ice-cold washing buffer: 50 mM Tris-HCl, pH 7.4. Fifty microliters of Microscint-40 were added to each well and the plates were counted in a Topcounter NTX (Packard). The radioligand binding results were analyzed using GraphPad PRISM software.
This binding assay was also performed using GPCR135.
To characterize INSL5 as the possible ligand for GPCR135 and GPCR142, cell membranes from COS-7 cells transiently expressing human GPCR135 or GPCR142 were used in the radioligand binding assays using [^125I)-relaxin3 as the radioligand as described by Liu et al. (2003a, 2003b). […] The binding assays were performed at room temperature for an incubation time of one hour. The binding mixtures were then filtered through GFC filters pre-saturated with 0.3 polyethylenimine (Sigma) and washed with cold binding buffer. The bound radioligand was counted in a top counter (TopCount/NTX, Packard) with Microscint-40. The results were analyzed by Prism 3.0 software.

GPCR135 [2] = biological target: T2, GPCR135; assay: GTPγS binding assay, GPCR135 expression membranes; type: biochemical; set-up: expressed in transfected cells; host or cells: CHO membranes (GTPγS); HEK293 with Gα16 or Gqi5 (Ca2+)
Description: The GPCR142 expression vector described above was transfected into CHO cells using Lipofectamine (Invitrogen) according to the manufacturer's instructions. Two days after transfection, the cells were harvested and the cell membranes were prepared by homogenizing the cells in cold 50 mM Tris-HCl, 5 mM EDTA, pH 7.5 followed by centrifugation at 4° C. 1000 g for 10 min. The supernatant was centrifuged at 4° C. 20,000 g for 30 min and the pellet was re-suspended in GTPγS binding buffer: 50 mM Tris-HCl, pH 7.4, 10 mM MgCl2, 1 mM EDTA, pH 8.0, and 100 mM NaCl using a polytron tissue homogenizer. Protease inhibitors were added to the buffer at concentrations of 1 mM PMSF, 10 μg/ml of pepstatin A, 10 μg/ml of leupeptin. Cell membranes and different concentrations of ligands were added to 96-well plates and incubated at room temperature for 20 min. ^35S-GTPγS (NEN) was then added to each well at a final concentration of […] in a final volume of 200 μL. The reactions were allowed to proceed at room temperature for 1 h, and then the mixtures were filtered though a 96-well GFC filter plate (Packard) and washed with cold washing buffer: 50 mM Tris-HCl, pH 7.4, 10 mM MgCl2. Fifty microliters of Microscint-40 (Packard) was added to each well and the plate was counted on a top counter (TopCount NTX, Packard).
The same assay was performed as described above, except using GPCR135 in place of GPCR142.

Substance: relaxin3: Human relaxin3 (SEQ ID NO: 6), produced recombinantly; mature peptide of A- and B-chain linked by disulfide bridges
- Ca2+ response (mouse GPCR142): did not stimulate detectable Ca^2+ response
- stimulation of Ca2+ signaling (GPCR142): No relaxin3-stimulated Ca^2+ signaling was observed
- stimulation of Ca2+ signaling (GPCR142; listed as Relaxin3): does not stimulate any detectable Ca^2+ signal
- displacement of 125I-relaxin3 binding to GPCR135 (GPCR135 [1]): specifically displaced
- stimulation of GTPγS binding (GPCR135 [2]): stimulated GTPγS binding

— patent publication US20050059089A1 (priority 2003, published 2005)
